This passage reports ka, kd and Kd results from patent publication US20230285589A1, “LIPOSOME COMPLEX FOR CANCER TREATMENT, COMPRISING NOVEL CD47 BINDER AND POLYNUCLEOTIDE” (priority 2020, published 2023).

The experiment deals with recombinant CD47 protein (Homo sapiens, UniProt Q08722). Kind of experiment: SPR, CD47 conjugated to CM5 chip. Particulars: 250 RU CD47, 1:1 binding model. Here is the method: Specifically, the recombinant CD47 protein was conjugated to the surface of the CM5 chip by a target SPR reaction of 250 RU through an EDC-NHS reaction to be used, and for HBS-P, the sensogram obtained through a process of association for 3 minutes and dissociation for 10 minutes at a flow rate of 30 μL/minutes was analyzed with the BiaEvaluation software using a 1:1 binding model and global fitting.
Chain of recombinant CD47 protein (Q08722 19-323): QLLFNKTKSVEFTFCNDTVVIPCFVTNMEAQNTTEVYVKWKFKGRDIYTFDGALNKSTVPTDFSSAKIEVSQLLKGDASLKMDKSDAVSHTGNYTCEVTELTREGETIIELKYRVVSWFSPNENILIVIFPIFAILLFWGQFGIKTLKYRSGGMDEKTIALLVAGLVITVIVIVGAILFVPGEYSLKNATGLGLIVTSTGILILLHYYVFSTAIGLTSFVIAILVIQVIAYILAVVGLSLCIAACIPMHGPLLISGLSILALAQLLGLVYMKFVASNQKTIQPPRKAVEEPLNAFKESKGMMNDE

A word on the Kd: it is the concentration at which binding is half-saturated. In the case of “Sirpα: pure Sirpa (SEQ ID NO: 25), water-soluble domain of the original CD47 ligand”, the ka turned out to be 610000 M⁻¹ s⁻¹ and the kd is 0.37 s⁻¹. For the same substance, the Kd (listed as Sirpa(wt)) turned out to be 280 nM.
